Data as given in patent US20150093758.

Experiments:
[1] = test system: PSA capture agent biligand biotin-PEG5-cyclic(CVFAHNYDYLVC)-Tz5-Gllffk
[2] = test system: PSA anchor ligand biotin-PEG5-cyclic(CVFAHNYDYLVC)

How did the enzyme activity of PSA against the chromogenic substrate Suc-Arg-Pro-Tyr-pNA (absorbance at 405 nm) [1] turn out when “human prostate specific antigen (free PSA, Scripps Laboratories #P0725)” was run?
Its enzyme activity of PSA against the chromogenic substrate Suc-Arg-Pro-Tyr-pNA (absorbance at 405 nm) is 3 fold.

And the enzyme activity of PSA against the chromogenic substrate Suc-Arg-Pro-Tyr-pNA (absorbance at 405 nm) [2]?
Its enzyme activity of PSA against the chromogenic substrate Suc-Arg-Pro-Tyr-pNA (absorbance at 405 nm) is 3 fold.
